The supplement of paper PMC9732359
± gives the uncertainty stated by the source.

Experiment: protein stability index of a GFP-peptide fusion (yeast GPS) (PSI 1-4); higher = more stable; sorted into four equal gates, so the index is relative within each strain
Procedure, shortened: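 For each peptide, the protein stability index sums the read frequency in every gate after multiplying it by the gate number. Read frequencies came from plasmids that were PCR-amplified from each gate and Illumina-sequenced, with reads assigned to strains by barcodes. The gates were four equal bins of GFP/Cherry fluorescence ratio applied to mid-log yeast in leucine-free medium carrying a pooled library of tiled 17-residue yeast protein peptides fused downstream of GFP on a Cherry-expressing plasmid.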

Row | Sequence | protein stability index (doa10∆) | protein stability index (pdr5∆) | protein stability index (san1∆) | protein stability index (ubr1∆)
1 | LNEITNSKVNKLNIETM [DSN1] | 2.81 ± 0.16 | 2.9 ± 0.097 | 2.54 ± 0.077 | 3.08 ± 0.051
2 | KVQDAIEEEIFDDSSRI [LIN1] | 3.07 ± 0.1 | 3.19 ± 0.11 | 3.16 ± 0.081 | 3.06 ± 0.069
3 | RPPNGIKNFKSLLLSSS [SSN2] | 1.51 ± 0.047 | 1.53 ± 0.047 | 1.83 ± 0.12 | 1.48 ± 0.037
4 | ASSTPIPVLGKPTDATG [YOR098C/NUP1] | 2.43 ± 0.055 | 2.88 ± 0.055 | 2.6 ± 0.05 | 2.42 ± 0.036
5 | GTYIQERNPSQRPQRRY [RPS10B] | 3.01 ± 0.052 | 3.1 ± 0.042 | 3.09 ± 0.033 | 3.23 ± 0.036
6 | ISSAKLDKFTDGGLFTL [QCR2] | 2.42 ± 0.13 | 3.06 ± 0.15 | 3.23 ± 0.088 | 3.21 ± 0.14
7 | RGVRPYKHIDASGSINR [RPS19A] | 3.23 ± 0.089 | 3.42 ± 0.1 | 3.1 ± 0.062 | 3.23 ± 0.091
8 | MNTVPFTSAPIEVTIGI [AAR2] | 1.49 ± 0.092 | 2.01 ± 0.12 | 1.47 ± 0.22 | 1.64 ± 0.083
9 | LNYTVINFKSREAIRPG [AAR2] | 3.07 ± 0.069 | 3.09 ± 0.068 | 3.15 ± 0.058 | 3.17 ± 0.042
10 | ILTSLMRSKLEKLTLVT [CSN9] | 2.42 ± 0.081 | 3.03 ± 0.064 | 2.87 ± 0.06 | 2.67 ± 0.059
11 | ANALGGLGVNRRILAAA [SSN3] | 1.77 ± 0.068 | 1.69 ± 0.069 | 1.58 ± 0.16 | 1.92 ± 0.046
12 | SLSYMAFPNASKKNRPT [RRP40] | 2.2 ± 0.22 | 2.89 ± 0.15 | – | 2.9 ± 0.14
13 | AFGLGAIMSKSSLEELL [ECM29] | 1.83 ± 0.089 | 2.07 ± 0.074 | 1.71 ± 0.12 | 2.06 ± 0.052
14 | MIATNVAARGLDIPNVS [PRP28] | 2.58 ± 0.17 | – | 2.2 ± 0.16 | –
15 | NYHPNASITPYKLVNKN [RPN4] | 1.84 ± 0.063 | 2.38 ± 0.078 | 2.59 ± 0.083 | 2.05 ± 0.068
16 | NSTATMQHNPLAGKRGP [PGD1] | 3.05 ± 0.047 | 3.09 ± 0.044 | 3 ± 0.042 | 3.03 ± 0.033
17 | KKITLQLLDTSNQRFKD [SIN4] | 3.02 ± 0.059 | 3.18 ± 0.067 | 2.91 ± 0.048 | 2.88 ± 0.039
18 | LAGKVGSIRVHKSGKLS [RPC53] | 1.45 ± 0.058 | 1.59 ± 0.072 | – | 1.28 ± 0.06
19 | DRMAKYLHIRDKILQLN [PGD1] | 2.32 ± 0.12 | 2.01 ± 0.079 | 1.76 ± 0.099 | 1.77 ± 0.049
20 | NFASGDNNTASNMLGSN [RPB3] | 3 ± 0.12 | 2.98 ± 0.089 | 3 ± 0.12 | 3.24 ± 0.21
21 | SFTLLNQLSQTNKLLFK [NUT1] | 2.81 ± 0.09 | 2.35 ± 0.055 | 2.71 ± 0.077 | 2.33 ± 0.057
22 | HFENAKVIDLDTKLKAH [YIL149C/MLP2] | 2.62 ± 0.073 | 2.73 ± 0.086 | 2.09 ± 0.11 | 2.48 ± 0.073
23 | SVTRAGNIISSDKTIVP [SIN4] | 3.01 ± 0.12 | 2.88 ± 0.099 | 2.97 ± 0.12 | 3.1 ± 0.068
24 | CAECSSKLSLSRTDAVR [RPC10] | 2.12 ± 0.049 | 2.16 ± 0.047 | 2.51 ± 0.061 | 2.35 ± 0.05
25 | NQNSSTGAGAFGTGQST [YJL041W/NSP1] | 2.33 ± 0.058 | 1.99 ± 0.062 | 2.31 ± 0.11 | 2.6 ± 0.048
26 | QEHNIQDSNVMPGSQIN [SNF2] | 3.11 ± 0.074 | 3.11 ± 0.057 | 2.68 ± 0.07 | 3.31 ± 0.062

Row | Sequence | protein stability index (doa10∆) | protein stability index (pdr5∆) | protein stability index (san1∆) | protein stability index (ubr1∆)
27 | SKYCEKSLPLLITVMEK [YCS4] | 1.76 ± 0.052 | 1.86 ± 0.048 | 2.12 ± 0.067 | 1.87 ± 0.039
28 | NTILNSSSDFRLHYYPK [BRR2] | 2.75 ± 0.054 | 3.17 ± 0.067 | 2.81 ± 0.048 | 3.11 ± 0.042
29 | FFYLRISKKLQFSYLSS [PCI8] | 1.22 ± 0.076 | 1.24 ± 0.059 | 1.24 ± 0.11 | 1.33 ± 0.044
30 | ITLRTSGELLQGIVRVY [MCD1] | 2.96 ± 0.075 | 2.9 ± 0.063 | 2.48 ± 0.066 | 3.12 ± 0.057
31 | SKLLVPQKNVKIQVVDR [PRE10] | 3.02 ± 0.074 | 2.84 ± 0.049 | 2.53 ± 0.099 | 2.72 ± 0.052
32 | KEYENHSGELMRQQSKE [SMC1] | 2.83 ± 0.1 | 2.85 ± 0.077 | 2.9 ± 0.05 | 3 ± 0.082
33 | NHVKQFYERLDKSTTQL [MED11] | 2.47 ± 0.061 | 2.64 ± 0.081 | 2.5 ± 0.052 | 2.62 ± 0.083
34 | NLHAEGWPKLQLGPQTP [ECM29] | 2.43 ± 0.18 | 2.74 ± 0.18 | – | 2.9 ± 0.24
35 | LFWKVKEEEGSFNNVIG [PRE2] | 3.13 ± 0.12 | 3.39 ± 0.11 | 3.21 ± 0.071 | 3.2 ± 0.11
36 | IEELDNPMVPSSVNEDT [PRP8] | 3.26 ± 0.075 | 3.22 ± 0.065 | 3.33 ± 0.053 | 3.26 ± 0.049
37 | LNATTAMDLAQMLIQGV [BRR2] | 3.08 ± 0.18 | 1.68 ± 0.11 | 2.58 ± 0.094 | 1.55 ± 0.083
38 | QRVRNMRELGLIQSTEF [YOR098C/NUP1] | 2.78 ± 0.12 | 2.03 ± 0.1 | 2.84 ± 0.26 | 2.22 ± 0.12
39 | SLPSKLTKYKEMERIVK [SRP68] | 2.59 ± 0.055 | 2.55 ± 0.064 | 2.42 ± 0.046 | 2.86 ± 0.044
40 | LIGCIPYSKNAVEQLAG [YDL088C/ASM4] | 3.08 ± 0.2 | 3.01 ± 0.14 | 2.94 ± 0.088 | 2.92 ± 0.27
41 | KIVVVRAEALNISGEFF [RPL16B] | 2.51 ± 0.12 | 2.79 ± 0.12 | 2.56 ± 0.14 | 3 ± 0.089
42 | GNDNNSDSNANAAVAGV [SWI3] | 3.21 ± 0.057 | 3.35 ± 0.056 | 3.31 ± 0.029 | 3.18 ± 0.058
43 | VQQRYTQSGGVRPFGVS [PRE6] | 2.8 ± 0.22 | – | – | –
44 | GPGGQAALRALARSGLR [RPS14B] | 2.41 ± 0.081 | 2.59 ± 0.11 | 2.22 ± 0.11 | 2.48 ± 0.085
45 | SVAPTKQREIVKAFLSI [NUT1] | 2.1 ± 0.11 | 1.94 ± 0.073 | 2.41 ± 0.13 | 2.04 ± 0.063
46 | LGLCLVIQIVTGIFMAM [COB] | 1.36 ± 0.053 | 1.2 ± 0.045 | 1.23 ± 0.13 | 1.42 ± 0.045
47 | SKEETVDFIKHSLSQAI [PRE3] | 2.56 ± 0.065 | 2.65 ± 0.063 | 2.66 ± 0.056 | 2.7 ± 0.053
48 | LLREFKKLDDKPSLVDV [RPN6] | – | 3.44 ± 0.25 | 3.27 ± 0.26 | –
49 | FKQIKSADCELLGIDAT [RPO31] | 1.62 ± 0.083 | 1.8 ± 0.089 | 1.42 ± 0.16 | 2.08 ± 0.053
50 | GNASLKYIALQVIVDIF [YCG1] | 1.2 ± 0.069 | 1.36 ± 0.076 | 1.19 ± 0.12 | 1.54 ± 0.15
51 | LNEAQGHIVSLELTTGA [SMD3] | 1.47 ± 0.053 | 1.9 ± 0.059 | 1.59 ± 0.14 | 1.85 ± 0.072
